Legend:
[1] = target: T1, human Fc-Frizzled-Kringle fusion protein (human Fc fused to the Frizzled and Kringle domains of human ROR1) (human); test: yeast surface display sorting
T1 construct: Entry is printed with a leader; also called huFc-frz-KNG

[2] = target: T2, human ROR2 (on recombinant cell lines) (human, UniProt Q01974 34-943); test: flow cytometry on recombinant cell lines; confirmed by standard ELISA
T2 construct: whole, on cells

T1 sequence (chain, as listed by the source limits assumed): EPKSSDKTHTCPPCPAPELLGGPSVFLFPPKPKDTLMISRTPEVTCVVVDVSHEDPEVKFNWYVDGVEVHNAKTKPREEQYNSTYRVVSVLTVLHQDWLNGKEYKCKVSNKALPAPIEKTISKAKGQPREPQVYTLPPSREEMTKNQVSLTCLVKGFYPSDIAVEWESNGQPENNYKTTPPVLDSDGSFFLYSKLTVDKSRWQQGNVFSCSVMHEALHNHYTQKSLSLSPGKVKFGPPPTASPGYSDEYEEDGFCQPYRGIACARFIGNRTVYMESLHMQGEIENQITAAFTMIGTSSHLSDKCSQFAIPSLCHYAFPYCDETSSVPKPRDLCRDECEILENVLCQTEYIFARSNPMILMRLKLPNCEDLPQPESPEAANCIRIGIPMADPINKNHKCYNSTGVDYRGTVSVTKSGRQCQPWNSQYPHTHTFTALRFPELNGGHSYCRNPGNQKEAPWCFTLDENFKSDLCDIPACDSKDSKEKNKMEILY

B1: Clone 82H02 (from a Fab yeast surface display library of immunized transgenic rats) (Fab, V domains shown)
VH: EVQLLESGGGLVQPGGSLRLSCAASGFTFTSYAMSWVRQAPGKGLEWVSTISGSGGGTYYTDSVKGRFTISRDNSKNTLYLQMNSLRAEDTAVYYCAQGSSIFDYWGQGTLVTVSS
VL: EIVLTQSPATLSLSPGERATLSCRASQSVSSYLAWYQQKPGQAPRLLIYDASNRATGIPARFSGSGSGTDFTLTISSLEPEDFAVYYCQQRSNWPPCTFGQGTRLEIK
B1: no binding [1]; no binding [2].

Reference: patent publication US20240343800A1 (Merck KGaA, published 2024)
